Measurements: patent US20210032299A1 (Eli Lilly, published 2021)
Starred links: 1 amine or outer side, 2 acyl side, 3 side chain; linkers in the order of their positions; H or OH if unused. Non-standard residues stand in square brackets, D forms with d. Groups on a side chain read outwards from the residue. No end group written: not given here. *: point of attachment. C20 diacid = O=C(O)CCCCCCCCCCCCCCCCCCC(=O)*; C18 diacid = O=C(O)CCCCCCCCCCCCCCCCC(=O)*; αMePhe(2-F) = C[C@](N)(Cc1ccccc1F)C(=O)O; γGlu = O=C(O)[C@H](CCC(=O)[*:2])N[*:1]; AEEA = NCCOCCOCC(=O)O; Aib = CC(C)(N)C(=O)O

B1: Example 30 (peptide)
peptide: Ac-[dY]AEGT[αMePhe(2-F)]ISDYSIALDKK([AEEA-AEEA-γGlu-C18 diacid])HQ[Aib]EFVNYLLAGGPSSGAPPPS-NH2
SMILES: CC[C@H](C)[C@H](NC(=O)[C@H](CO)NC(=O)[C@H](Cc1ccc(O)cc1)NC(=O)[C@H](CC(=O)O)NC(=O)[C@H](CO)NC(=O)[C@@H](NC(=O)[C@](C)(Cc1ccccc1F)NC(=O)[C@@H](NC(=O)CNC(=O)[C@H](CCC(=O)O)NC(=O)[C@H](C)NC(=O)[C@@H](Cc1ccc(O)cc1)NC(C)=O)[C@@H](C)O)[C@@H](C)CC)C(=O)N[C@@H](C)C(=O)N[C@@H](CC(C)C)C(=O)N[C@@H](CC(=O)O)C(=O)N[C@@H](CCCCN)C(=O)N[C@@H](CCCCNC(=O)COCCOCCNC(=O)COCCOCCNC(=O)CC[C@H](NC(=O)CCCCCCCCCCCCCCCCC(=O)O)C(=O)O)C(=O)N[C@@H](Cc1c[nH]cn1)C(=O)N[C@@H](CCC(N)=O)C(=O)NC(C)(C)C(=O)N[C@@H](CCC(=O)O)C(=O)N[C@@H](Cc1ccccc1)C(=O)N[C@H](C(=O)N[C@@H](CC(N)=O)C(=O)N[C@@H](Cc1ccc(O)cc1)C(=O)N[C@@H](CC(C)C)C(=O)N[C@@H](CC(C)C)C(=O)N[C@@H](C)C(=O)NCC(=O)NCC(=O)N1CCC[C@H]1C(=O)N[C@@H](CO)C(=O)N[C@@H](CO)C(=O)NCC(=O)N[C@@H](C)C(=O)N1CCC[C@H]1C(=O)N1CCC[C@H]1C(=O)N1CCC[C@H]1C(=O)N[C@@H](CO)C(N)=O)C(C)C
B2: Example 36 (peptide)
peptide: Y[Aib]EGT[αMePhe(2-F)]ISDYSIALDKK([AEEA-AEEA-γGlu-C20 diacid])HQ[Aib]DFVEYLLETGPSSGAPPPS-NH2
modifications: N-terminus assumed
SMILES: CC[C@H](C)[C@H](NC(=O)[C@H](CO)NC(=O)[C@H](Cc1ccc(O)cc1)NC(=O)[C@H](CC(=O)O)NC(=O)[C@H](CO)NC(=O)[C@@H](NC(=O)[C@](C)(Cc1ccccc1F)NC(=O)[C@@H](NC(=O)CNC(=O)[C@H](CCC(=O)O)NC(=O)C(C)(C)NC(=O)[C@@H](N)Cc1ccc(O)cc1)[C@@H](C)O)[C@@H](C)CC)C(=O)N[C@@H](C)C(=O)N[C@@H](CC(C)C)C(=O)N[C@@H](CC(=O)O)C(=O)N[C@@H](CCCCN)C(=O)N[C@@H](CCCCNC(=O)COCCOCCNC(=O)COCCOCCNC(=O)CC[C@H](NC(=O)CCCCCCCCCCCCCCCCCCC(=O)O)C(=O)O)C(=O)N[C@@H](Cc1c[nH]cn1)C(=O)N[C@@H](CCC(N)=O)C(=O)NC(C)(C)C(=O)N[C@@H](CC(=O)O)C(=O)N[C@@H](Cc1ccccc1)C(=O)N[C@H](C(=O)N[C@@H](CCC(=O)O)C(=O)N[C@@H](Cc1ccc(O)cc1)C(=O)N[C@@H](CC(C)C)C(=O)N[C@@H](CC(C)C)C(=O)N[C@@H](CCC(=O)O)C(=O)N[C@H](C(=O)NCC(=O)N1CCC[C@H]1C(=O)N[C@@H](CO)C(=O)N[C@@H](CO)C(=O)NCC(=O)N[C@@H](C)C(=O)N1CCC[C@H]1C(=O)N1CCC[C@H]1C(=O)N1CCC[C@H]1C(=O)N[C@@H](CO)C(N)=O)[C@@H](C)O)C(C)C
B3: Example 37 (peptide)
peptide: Y[Aib]EGT[αMePhe(2-F)]ISDYSIALDKK([AEEA-AEEA-γGlu-C20 diacid])HQ[Aib]DFVEYLLEGGPSSGAPPPS-NH2
modifications: N-terminus assumed
SMILES: CC[C@H](C)[C@H](NC(=O)[C@H](CO)NC(=O)[C@H](Cc1ccc(O)cc1)NC(=O)[C@H](CC(=O)O)NC(=O)[C@H](CO)NC(=O)[C@@H](NC(=O)[C@](C)(Cc1ccccc1F)NC(=O)[C@@H](NC(=O)CNC(=O)[C@H](CCC(=O)O)NC(=O)C(C)(C)NC(=O)[C@@H](N)Cc1ccc(O)cc1)[C@@H](C)O)[C@@H](C)CC)C(=O)N[C@@H](C)C(=O)N[C@@H](CC(C)C)C(=O)N[C@@H](CC(=O)O)C(=O)N[C@@H](CCCCN)C(=O)N[C@@H](CCCCNC(=O)COCCOCCNC(=O)COCCOCCNC(=O)CC[C@H](NC(=O)CCCCCCCCCCCCCCCCCCC(=O)O)C(=O)O)C(=O)N[C@@H](Cc1c[nH]cn1)C(=O)N[C@@H](CCC(N)=O)C(=O)NC(C)(C)C(=O)N[C@@H](CC(=O)O)C(=O)N[C@@H](Cc1ccccc1)C(=O)N[C@H](C(=O)N[C@@H](CCC(=O)O)C(=O)N[C@@H](Cc1ccc(O)cc1)C(=O)N[C@@H](CC(C)C)C(=O)N[C@@H](CC(C)C)C(=O)N[C@@H](CCC(=O)O)C(=O)NCC(=O)NCC(=O)N1CCC[C@H]1C(=O)N[C@@H](CO)C(=O)N[C@@H](CO)C(=O)NCC(=O)N[C@@H](C)C(=O)N1CCC[C@H]1C(=O)N1CCC[C@H]1C(=O)N1CCC[C@H]1C(=O)N[C@@H](CO)C(N)=O)C(C)C
B4: Example 40 (peptide)
peptide: Y[Aib]EGT[αMePhe(2-F)]ISDYSIALDKK([AEEA-AEEA-γGlu-C20 diacid])HQ[Aib]DFVEWLLETGPSSGAPPPS-NH2
modifications: N-terminus assumed
SMILES: CC[C@H](C)[C@H](NC(=O)[C@H](CO)NC(=O)[C@H](Cc1ccc(O)cc1)NC(=O)[C@H](CC(=O)O)NC(=O)[C@H](CO)NC(=O)[C@@H](NC(=O)[C@](C)(Cc1ccccc1F)NC(=O)[C@@H](NC(=O)CNC(=O)[C@H](CCC(=O)O)NC(=O)C(C)(C)NC(=O)[C@@H](N)Cc1ccc(O)cc1)[C@@H](C)O)[C@@H](C)CC)C(=O)N[C@@H](C)C(=O)N[C@@H](CC(C)C)C(=O)N[C@@H](CC(=O)O)C(=O)N[C@@H](CCCCN)C(=O)N[C@@H](CCCCNC(=O)COCCOCCNC(=O)COCCOCCNC(=O)CC[C@H](NC(=O)CCCCCCCCCCCCCCCCCCC(=O)O)C(=O)O)C(=O)N[C@@H](Cc1c[nH]cn1)C(=O)N[C@@H](CCC(N)=O)C(=O)NC(C)(C)C(=O)N[C@@H](CC(=O)O)C(=O)N[C@@H](Cc1ccccc1)C(=O)N[C@H](C(=O)N[C@@H](CCC(=O)O)C(=O)N[C@@H](Cc1c[nH]c2ccccc12)C(=O)N[C@@H](CC(C)C)C(=O)N[C@@H](CC(C)C)C(=O)N[C@@H](CCC(=O)O)C(=O)N[C@H](C(=O)NCC(=O)N1CCC[C@H]1C(=O)N[C@@H](CO)C(=O)N[C@@H](CO)C(=O)NCC(=O)N[C@@H](C)C(=O)N1CCC[C@H]1C(=O)N1CCC[C@H]1C(=O)N1CCC[C@H]1C(=O)N[C@@H](CO)C(N)=O)[C@@H](C)O)C(C)C

The binders below were run against T1, human glucagon receptor (human, UniProt P47871 26-477) (assay: SPA, displacement of [125I]-Gcg from hGcgR membranes, 0.1% bacitracin).
T1 construct: whole, on cells; Assayed as crude membranes of stably transfected HEK293 cells; also called hGcgR; GcgR
T1 sequence (P47871 26-477): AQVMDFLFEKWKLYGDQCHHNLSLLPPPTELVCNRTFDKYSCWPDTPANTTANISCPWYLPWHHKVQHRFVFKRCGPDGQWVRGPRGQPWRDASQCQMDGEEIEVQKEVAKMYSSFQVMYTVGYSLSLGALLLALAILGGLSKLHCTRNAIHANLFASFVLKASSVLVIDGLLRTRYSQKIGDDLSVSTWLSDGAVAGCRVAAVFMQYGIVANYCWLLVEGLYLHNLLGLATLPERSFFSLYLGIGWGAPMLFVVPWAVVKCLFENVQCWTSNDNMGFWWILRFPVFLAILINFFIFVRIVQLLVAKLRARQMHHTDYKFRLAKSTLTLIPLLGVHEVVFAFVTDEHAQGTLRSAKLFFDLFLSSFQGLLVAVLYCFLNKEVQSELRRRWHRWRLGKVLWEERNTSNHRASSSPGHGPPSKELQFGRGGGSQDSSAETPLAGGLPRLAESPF
Procedure, shortened: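 Binding buffer: 25 mM HEPES pH 7.4, 2.5 mM CaCl₂, 1 mM MgCl₂, 0.003% Tween-20, protease inhibitors without EDTA. Counted by scintillation after 12 h incubation/settling at room temperature. Four-parameter nonlinear fit; Kᵢ given as geometric mean ± SEM of independent replicates run on different days.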

Row | Binder | Ki
1 | B1 | 407 nM
2 | B2 | 201 nM
3 | B3 | 51.4 nM
4 | B4 | 50.9 nM

Each binder was assayed against T2, human GLP-1 receptor (human, UniProt P43220 24-463) (assay: SPA, displacement of [125I]-GLP-1 from hGLP-1R membranes, 0.1% bacitracin).
T2 construct: whole, on cells; Assayed as crude membranes of stably transfected HEK293 cells; also called hGLP1R; hGLP-1R
Procedure, shortened: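 Binding buffer: 25 mM HEPES pH 7.4, 2.5 mM CaCl₂, 1 mM MgCl₂, 0.1% bacitracin, 0.003% Tween-20, protease inhibitors without EDTA. Four-parameter nonlinear regression; Kᵢ given as geometric mean ± SEM, n = independent replicates run on different days.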

Row | Binder | Ki
5 | B1 | 26.5 nM
6 | B2 | 393 nM
7 | B3 | 83.9 nM
8 | B4 | 302 nM

These binders were tested against T3, human glucose-dependent insulinotropic polypeptide (GIP) receptor (human, UniProt P48546 22-466) (assay: SPA, displacement of [125I]-GIP from hGIPR membranes, 0.1% bacitracin).
T3 construct: whole, on cells; Assayed as crude membranes of stably transfected CHO cells; also called hGIPR; human GIP receptor
T3 sequence (looked up): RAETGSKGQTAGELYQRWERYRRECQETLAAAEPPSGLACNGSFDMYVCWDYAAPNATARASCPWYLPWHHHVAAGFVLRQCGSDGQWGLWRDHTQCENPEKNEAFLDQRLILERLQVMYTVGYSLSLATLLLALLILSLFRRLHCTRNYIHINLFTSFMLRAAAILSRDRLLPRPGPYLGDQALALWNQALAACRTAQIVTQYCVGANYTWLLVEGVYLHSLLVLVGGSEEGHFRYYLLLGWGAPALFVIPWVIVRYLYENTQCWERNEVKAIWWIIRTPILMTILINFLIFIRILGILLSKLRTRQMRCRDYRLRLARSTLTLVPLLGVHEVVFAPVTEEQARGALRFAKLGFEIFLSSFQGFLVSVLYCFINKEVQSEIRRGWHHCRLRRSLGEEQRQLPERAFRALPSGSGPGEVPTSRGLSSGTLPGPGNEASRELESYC

Row | Binder | Ki
9 | B1 | 0.037 nM
10 | B2 | 0.0683 nM
11 | B3 | 0.026 nM
12 | B4 | 0.0594 nM
